# According to article PMC3282769, “New Insight into the Transcarbamylase Family: The Structure of Putrescine Transcarbamylase, a Key Catalyst for Fermentative Utilization of Agmatine” (PLoS ONE, 2012):
# Assays:
# NCCCCN [1] = assay: carbamylputrescine production, colorimetric (Archibald reaction); hyperbolic fit; format: biochemical, Enterococcus faecalis; details: 10 mM carbamylphosphate, 50 mM Tris-HCl pH 7, 37°C
# NCCCCN [2] = assay: purified protein; details: 10 mM carbamylphosphate, 50 mM Tris-HCl pH 7, 37°C, 230YGLY233 replaced by VSMG
Substance,Km (NCCCCN [1]),Km (NCCCCN [2])
PTC (putrescine transcarbamylase) (Enterococcus faecalis V583),1.41 ± 0.22 mM,–
PTC (putrescine transcarbamylase) (Enterococcus faecalis V583; G231S/L232M/Y230V/Y233G),–,32.9 ± 8.8 mM
